# ± gives the standard error. Variants at the floor of the assay were thinned out.
# B1: glmS ribozyme (parent)
# chain: AUAAAAGCGCCAGAACUACAGAAAUGUAGUUGACGAGGAGGAGGUUUAUCGAAUUUUCGGCGGAUGCCUCCAAA
# Legend:
# Conditions in all cases: with glucosamine-6-phosphate
# glucosamine-6-phosphate [1] = variants of: B1; assay: self-cleavage kobs at 40 uM GlcN6P; higher = faster cleavage; RNA array
# Procedure, shortened: (§1)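 kobs was derived by fitting per-tile medians to one- or two-exponential decays after normalising signals to baseline and to non-cleaving reference variants. Those signals came from barcoded ribozyme variants transcribed in situ by E. coli RNA polymerase on sequenced MiSeq chips, followed through a hybridised Cy3 probe at 37 °C and imaged over ~14 h. Glucosamine-6-phosphate (40 μM to 10 mM) in HEPES/KCl/Mg(OAc)2 buffer was flowed in. Weighted Michaelis–Menten fits across concentrations then gave kcat and KM.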
# glucosamine-6-phosphate [2] = variants of: B1; assay: self-cleavage kobs at 10000 uM GlcN6P; higher = faster cleavage; RNA array
# Procedure, shortened: as §1
# glucosamine-6-phosphate [3] = variants of: B1; assay: self-cleavage kobs at 160 uM GlcN6P; higher = faster cleavage; RNA array
# Procedure, shortened: as §1
# glucosamine-6-phosphate [4] = variants of: B1; assay: self-cleavage kobs at 640 uM GlcN6P; higher = faster cleavage; RNA array
# Procedure, shortened: as §1
# glucosamine-6-phosphate [5] = variants of: B1; assay: self-cleavage kobs at 2500 uM GlcN6P; higher = faster cleavage; RNA array
# Procedure, shortened: as §1
Variant,self-cleavage kobs at 40 uM GlcN6P (glucosamine-6-phosphate [1]),self-cleavage kobs at 10000 uM GlcN6P (glucosamine-6-phosphate [2]),self-cleavage kobs at 160 uM GlcN6P (glucosamine-6-phosphate [3]),self-cleavage kobs at 640 uM GlcN6P (glucosamine-6-phosphate [4]),self-cleavage kobs at 2500 uM GlcN6P (glucosamine-6-phosphate [5])
A15C C16U U57A G66C,< 1e-05 s⁻¹,< 1e-05 s⁻¹,–,–,–
C19A C50G,5.77e-05 ± 2.2e-05 s⁻¹,4.18e-05 ± 1.5e-05 s⁻¹,0.000364 ± 9.5e-05 s⁻¹,0.000594 ± 0.00013 s⁻¹,6.17e-05 ± 2.2e-05 s⁻¹
A15G U56G,0.000419 ± 4.9e-05 s⁻¹,0.0296 ± 0.0053 s⁻¹,0.000989 ± 0.00014 s⁻¹,0.00325 ± 0.00045 s⁻¹,0.00559 ± 0.00073 s⁻¹
C16U U49G G59C G62U C67A,< 1e-05 s⁻¹,–,–,–,–
G29U G62C,< 1e-05 s⁻¹,< 1e-05 s⁻¹,–,< 1e-05 s⁻¹,< 1e-05 s⁻¹
G29U G62U,< 1e-05 s⁻¹,< 1e-05 s⁻¹,< 1e-05 s⁻¹,< 1e-05 s⁻¹,< 1e-05 s⁻¹
A14U G32C U45A U47G,< 1e-05 s⁻¹,3.36e-05 ± 1.4e-05 s⁻¹,–,–,–
C16G G44U U65A,< 1e-05 s⁻¹,–,–,–,< 1e-05 s⁻¹
A15U G44C U56C,< 1e-05 s⁻¹,< 1e-05 s⁻¹,< 1e-05 s⁻¹,< 1e-05 s⁻¹,< 1e-05 s⁻¹
G29C G41C G44A G60A,< 1e-05 s⁻¹,< 1e-05 s⁻¹,–,–,–
G29C U47G C68G,7.83e-05 ± 2.3e-05 s⁻¹,3.71e-05 ± 1.3e-05 s⁻¹,–,–,–
A15C U57C,< 1e-05 s⁻¹,5.67e-05 ± 6.7e-06 s⁻¹,–,–,–
G29U G38U U55G,< 1e-05 s⁻¹,< 1e-05 s⁻¹,–,–,< 1e-05 s⁻¹
G29C C67U,2.43e-05 ± 8.3e-06 s⁻¹,0.000975 ± 0.0002 s⁻¹,–,0.000126 ± 1.3e-05 s⁻¹,0.000201 ± 2.6e-05 s⁻¹
U30A G59A G60C C71A,< 1e-05 s⁻¹,< 1e-05 s⁻¹,–,–,–
A15U G51C A64G,< 1e-05 s⁻¹,–,–,–,–
C16G A48C C50A C58U A64U,< 1e-05 s⁻¹,< 1e-05 s⁻¹,–,–,–
A15C A42C,< 1e-05 s⁻¹,< 1e-05 s⁻¹,–,< 1e-05 s⁻¹,–
U30C G41A A42C C50G,< 1e-05 s⁻¹,< 1e-05 s⁻¹,–,–,–
C16U A36U A64G,< 1e-05 s⁻¹,–,–,–,–
U30A A39U G62U,< 1e-05 s⁻¹,–,–,–,–
A15G G38A A42G,< 1e-05 s⁻¹,–,< 1e-05 s⁻¹,< 1e-05 s⁻¹,–
G29U A39U,0.000106 ± 1e-05 s⁻¹,0.0042 ± 0.00041 s⁻¹,0.000145 ± 2.1e-05 s⁻¹,0.000784 ± 0.00013 s⁻¹,0.00196 ± 0.00026 s⁻¹

# Reference: the supplement of paper PMC7125110
